Assay results from paper PMC4218952.

Molecular target: Myc-GluK2a (UniProt Q13002)
Assay: co-IP; HEK293T cells transfected with FLAG-parkin and Myc-GluK2a or its truncation mutants; 500 ug lysate, Myc, parkin or FLAG antibody overnight at 4 C, Protein A or G agarose, washes with 500 mM NaCl, 1% Triton X-100; also after activation with 10 mM glutamate

FLAG-parkin, sequence (O60260 whole entry, the tested form may be a part): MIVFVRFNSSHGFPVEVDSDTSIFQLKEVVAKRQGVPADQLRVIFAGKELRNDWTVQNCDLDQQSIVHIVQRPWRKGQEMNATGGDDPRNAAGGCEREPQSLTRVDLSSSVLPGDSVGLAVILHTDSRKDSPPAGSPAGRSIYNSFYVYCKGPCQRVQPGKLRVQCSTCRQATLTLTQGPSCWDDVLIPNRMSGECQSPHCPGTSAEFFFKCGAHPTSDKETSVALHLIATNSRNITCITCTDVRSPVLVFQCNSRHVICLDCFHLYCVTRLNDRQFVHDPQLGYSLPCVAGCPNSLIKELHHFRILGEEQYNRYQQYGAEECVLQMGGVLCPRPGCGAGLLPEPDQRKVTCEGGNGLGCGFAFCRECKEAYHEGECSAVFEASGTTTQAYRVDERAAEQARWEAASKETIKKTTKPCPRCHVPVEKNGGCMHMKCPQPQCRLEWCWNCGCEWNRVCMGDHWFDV
UniProt Q13002, sequence (Q13002 32-908): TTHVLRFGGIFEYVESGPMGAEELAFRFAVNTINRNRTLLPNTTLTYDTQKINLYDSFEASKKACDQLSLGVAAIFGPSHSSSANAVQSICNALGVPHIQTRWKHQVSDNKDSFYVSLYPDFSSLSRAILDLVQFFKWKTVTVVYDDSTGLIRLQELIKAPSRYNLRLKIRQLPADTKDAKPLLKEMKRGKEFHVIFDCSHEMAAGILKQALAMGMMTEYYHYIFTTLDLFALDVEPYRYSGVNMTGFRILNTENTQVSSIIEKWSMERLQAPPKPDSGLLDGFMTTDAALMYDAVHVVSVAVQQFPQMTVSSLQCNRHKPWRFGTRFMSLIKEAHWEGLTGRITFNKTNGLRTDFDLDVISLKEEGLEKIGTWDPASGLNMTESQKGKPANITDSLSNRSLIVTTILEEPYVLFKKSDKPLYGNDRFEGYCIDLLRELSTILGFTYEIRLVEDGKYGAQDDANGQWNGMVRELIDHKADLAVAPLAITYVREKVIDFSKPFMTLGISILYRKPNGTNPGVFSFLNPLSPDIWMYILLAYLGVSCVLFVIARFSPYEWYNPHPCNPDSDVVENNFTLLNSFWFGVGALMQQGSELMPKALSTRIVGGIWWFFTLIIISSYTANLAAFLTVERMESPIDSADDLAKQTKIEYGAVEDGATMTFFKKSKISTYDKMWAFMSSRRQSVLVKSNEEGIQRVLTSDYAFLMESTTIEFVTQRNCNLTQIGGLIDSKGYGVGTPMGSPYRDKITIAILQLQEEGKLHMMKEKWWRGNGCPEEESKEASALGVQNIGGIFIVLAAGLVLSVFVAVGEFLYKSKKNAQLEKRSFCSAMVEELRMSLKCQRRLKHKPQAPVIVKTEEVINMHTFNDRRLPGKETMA

co-immunoprecipitation after 10 mM glutamate, relative to untreated (fold of untreated): 2.7
Substance: FLAG-parkin (from UniProt O60260 1-465) (enzyme)
